For one experiment, the target named is 3xHA-NLuc-dSP-AVR-Pia (UniProt B9WZW9). Nature of the experiment: split luciferase complementation assay. As to conditions: parent: est. 3400; read off a plot.
The target of a further experiment is OsHIPP21-HMA (rice). Kind of experiment: ITC. On the technique in general: In ITC the heat of successive injections is recorded.
Another experiment addresses OsHPP10-HMA (rice). Kind of experiment: ITC.
The next experiment addresses OsHPP09-HMA (rice). Nature of the experiment: ITC.
Another experiment addresses OsHPP11-HMA (rice). Nature of the experiment: ITC.
Experiment [1] concerns the target recombinant OsHPP09-HMA (rice). Kind of experiment: NMR titration.
The target in experiment [2] is recombinant OsHPP09-HMA (rice). Nature of the experiment: ITC.
Experiment [3] deals with recombinant OsHPP10-HMA (rice). Kind of experiment: ITC.
The target of experiment [4] is recombinant OsHIPP21-HMA (rice). Kind of experiment: ITC.
For experiment [5], the target named is recombinant OsHPP11-HMA (rice). Nature of the experiment: ITC.

Our source for the response and Kd values is publication PMC13395435.

pKd: −log10 of the molar value. “And” between values parts separate entries of the source, which are not always exact repeats. Equal values may be shown once. A value given as a limit tells only on which side of the number the result lay.

In general, pKd refers to −log10 of the Kd, conventionally taken in molar units.

In the case of 3xFlag-CLuc-OsHPP09 full-length A37W, the response with 3xHA-NLuc-dSP-AVR-Pia was 1300.

For the substance 3xFlag-CLuc-OsHPP09 full-length D33A, the response with 3xHA-NLuc-dSP-AVR-Pia is 2800. On the same count and under the same terms, the same measure for 3xFlag-CLuc-OsHPP09 full-length D33H: 2600; for 3xFlag-CLuc-OsHPP09 full-length D33R: 2000; for 3xFlag-CLuc-OsHPP09 full-length K19A: 1800. Take 3xFlag-CLuc-OsHPP09 full-length K19W: in the experiment with 3xHA-NLuc-dSP-AVR-Pia, the response was found to be 1500. Take 3xFlag-CLuc-OsHPP09 full-length Q20A: in the experiment with 3xHA-NLuc-dSP-AVR-Pia, the response was 3100.

For AVR-Pia (natural protein), the pKd was 5.71 and 5.63 in the experiment with OsHIPP21-HMA (rice); 5.19 and 5.13 with OsHPP10-HMA (rice); 6.90 and 6.73 in the experiment with OsHPP09-HMA (rice); 6.03 with OsHPP11-HMA (rice).

For “recombinant AVR-Pia (from UniProt B9WZW9 1-85) (natural protein)”, the pKd in [1] is greater than 7.00; in [2], 6.94; in [3] it was 5.28; in experiment [4], 5.89; in experiment [5], 6.11.
